Experimental data: patent US20240400654A1
Values joined by “and” are separate entries in the source; they are usually repeats but may differ in a detail not shown here. Equal values may be shown once.

B1: KB001 mouse Fab VL N54I (Fab, V domains shown)
VH: EVQLKQSGPGLVAPSQSLSITCTVSGFSLSIYSVHWVRQPPGKGLEWLGMIWGGGSSDYNSALKSRLSISKDNSKSQVFLKMNSLQTDDTAMYYCARNGNFYAMDYWGQGTSVTVSS
VL: QIVLTQSPAIMSASLGERVTMTCTASSSVSSSFLHWYQQKPGSSPQLWIYSTSILASGVPARFSGSGSGTSYSLTISSMEAEDAATYYCHQYHHSPYIYTFGGGTKLEIK
B2: KB001 mouse Fab VL N54K (Fab, V domains shown)
VH: EVQLKQSGPGLVAPSQSLSITCTVSGFSLSIYSVHWVRQPPGKGLEWLGMIWGGGSSDYNSALKSRLSISKDNSKSQVFLKMNSLQTDDTAMYYCARNGNFYAMDYWGQGTSVTVSS
VL: QIVLTQSPAIMSASLGERVTMTCTASSSVSSSFLHWYQQKPGSSPQLWIYSTSKLASGVPARFSGSGSGTSYSLTISSMEAEDAATYYCHQYHHSPYIYTFGGGTKLEIK
B3: KB001 mouse Fab VL N54W (Fab, V domains shown)
VH: EVQLKQSGPGLVAPSQSLSITCTVSGFSLSIYSVHWVRQPPGKGLEWLGMIWGGGSSDYNSALKSRLSISKDNSKSQVFLKMNSLQTDDTAMYYCARNGNFYAMDYWGQGTSVTVSS
VL: QIVLTQSPAIMSASLGERVTMTCTASSSVSSSFLHWYQQKPGSSPQLWIYSTSWLASGVPARFSGSGSGTSYSLTISSMEAEDAATYYCHQYHHSPYIYTFGGGTKLEIK
B4: KB001 mouse Fab VL N54E (Fab, V domains shown)
VH: EVQLKQSGPGLVAPSQSLSITCTVSGFSLSIYSVHWVRQPPGKGLEWLGMIWGGGSSDYNSALKSRLSISKDNSKSQVFLKMNSLQTDDTAMYYCARNGNFYAMDYWGQGTSVTVSS
VL: QIVLTQSPAIMSASLGERVTMTCTASSSVSSSFLHWYQQKPGSSPQLWIYSTSELASGVPARFSGSGSGTSYSLTISSMEAEDAATYYCHQYHHSPYIYTFGGGTKLEIK
B5: KB001 mouse Fab VL N54D (Fab, V domains shown)
VH: EVQLKQSGPGLVAPSQSLSITCTVSGFSLSIYSVHWVRQPPGKGLEWLGMIWGGGSSDYNSALKSRLSISKDNSKSQVFLKMNSLQTDDTAMYYCARNGNFYAMDYWGQGTSVTVSS
VL: QIVLTQSPAIMSASLGERVTMTCTASSSVSSSFLHWYQQKPGSSPQLWIYSTSDLASGVPARFSGSGSGTSYSLTISSMEAEDAATYYCHQYHHSPYIYTFGGGTKLEIK
B6: KB001 mouse Fab VL N54F (Fab, V domains shown)
VH: EVQLKQSGPGLVAPSQSLSITCTVSGFSLSIYSVHWVRQPPGKGLEWLGMIWGGGSSDYNSALKSRLSISKDNSKSQVFLKMNSLQTDDTAMYYCARNGNFYAMDYWGQGTSVTVSS
VL: QIVLTQSPAIMSASLGERVTMTCTASSSVSSSFLHWYQQKPGSSPQLWIYSTSFLASGVPARFSGSGSGTSYSLTISSMEAEDAATYYCHQYHHSPYIYTFGGGTKLEIK
B7: KB001 mouse Fab VL N54L (Fab, V domains shown)
VH: EVQLKQSGPGLVAPSQSLSITCTVSGFSLSIYSVHWVRQPPGKGLEWLGMIWGGGSSDYNSALKSRLSISKDNSKSQVFLKMNSLQTDDTAMYYCARNGNFYAMDYWGQGTSVTVSS
VL: QIVLTQSPAIMSASLGERVTMTCTASSSVSSSFLHWYQQKPGSSPQLWIYSTSLLASGVPARFSGSGSGTSYSLTISSMEAEDAATYYCHQYHHSPYIYTFGGGTKLEIK
B8: KB001 mouse Fab VL N54A (Fab, V domains shown)
VH: EVQLKQSGPGLVAPSQSLSITCTVSGFSLSIYSVHWVRQPPGKGLEWLGMIWGGGSSDYNSALKSRLSISKDNSKSQVFLKMNSLQTDDTAMYYCARNGNFYAMDYWGQGTSVTVSS
VL: QIVLTQSPAIMSASLGERVTMTCTASSSVSSSFLHWYQQKPGSSPQLWIYSTSALASGVPARFSGSGSGTSYSLTISSMEAEDAATYYCHQYHHSPYIYTFGGGTKLEIK
B9: KB001 mouse Fab VL L55Q (Fab, V domains shown)
VH: EVQLKQSGPGLVAPSQSLSITCTVSGFSLSIYSVHWVRQPPGKGLEWLGMIWGGGSSDYNSALKSRLSISKDNSKSQVFLKMNSLQTDDTAMYYCARNGNFYAMDYWGQGTSVTVSS
VL: QIVLTQSPAIMSASLGERVTMTCTASSSVSSSFLHWYQQKPGSSPQLWIYSTSNQASGVPARFSGSGSGTSYSLTISSMEAEDAATYYCHQYHHSPYIYTFGGGTKLEIK
B10: KB001 mouse Fab VL L55S (Fab, V domains shown)
VH: EVQLKQSGPGLVAPSQSLSITCTVSGFSLSIYSVHWVRQPPGKGLEWLGMIWGGGSSDYNSALKSRLSISKDNSKSQVFLKMNSLQTDDTAMYYCARNGNFYAMDYWGQGTSVTVSS
VL: QIVLTQSPAIMSASLGERVTMTCTASSSVSSSFLHWYQQKPGSSPQLWIYSTSNSASGVPARFSGSGSGTSYSLTISSMEAEDAATYYCHQYHHSPYIYTFGGGTKLEIK
B11: KB001 mouse Fab VL L55T (Fab, V domains shown)
VH: EVQLKQSGPGLVAPSQSLSITCTVSGFSLSIYSVHWVRQPPGKGLEWLGMIWGGGSSDYNSALKSRLSISKDNSKSQVFLKMNSLQTDDTAMYYCARNGNFYAMDYWGQGTSVTVSS
VL: QIVLTQSPAIMSASLGERVTMTCTASSSVSSSFLHWYQQKPGSSPQLWIYSTSNTASGVPARFSGSGSGTSYSLTISSMEAEDAATYYCHQYHHSPYIYTFGGGTKLEIK
B12: KB001 mouse Fab VL L55H (Fab, V domains shown)
VH: EVQLKQSGPGLVAPSQSLSITCTVSGFSLSIYSVHWVRQPPGKGLEWLGMIWGGGSSDYNSALKSRLSISKDNSKSQVFLKMNSLQTDDTAMYYCARNGNFYAMDYWGQGTSVTVSS
VL: QIVLTQSPAIMSASLGERVTMTCTASSSVSSSFLHWYQQKPGSSPQLWIYSTSNHASGVPARFSGSGSGTSYSLTISSMEAEDAATYYCHQYHHSPYIYTFGGGTKLEIK
B13: KB001 mouse Fab VL L55K (Fab, V domains shown)
VH: EVQLKQSGPGLVAPSQSLSITCTVSGFSLSIYSVHWVRQPPGKGLEWLGMIWGGGSSDYNSALKSRLSISKDNSKSQVFLKMNSLQTDDTAMYYCARNGNFYAMDYWGQGTSVTVSS
VL: QIVLTQSPAIMSASLGERVTMTCTASSSVSSSFLHWYQQKPGSSPQLWIYSTSNKASGVPARFSGSGSGTSYSLTISSMEAEDAATYYCHQYHHSPYIYTFGGGTKLEIK
B14: KB001 mouse Fab VL L55V (Fab, V domains shown)
VH: EVQLKQSGPGLVAPSQSLSITCTVSGFSLSIYSVHWVRQPPGKGLEWLGMIWGGGSSDYNSALKSRLSISKDNSKSQVFLKMNSLQTDDTAMYYCARNGNFYAMDYWGQGTSVTVSS
VL: QIVLTQSPAIMSASLGERVTMTCTASSSVSSSFLHWYQQKPGSSPQLWIYSTSNVASGVPARFSGSGSGTSYSLTISSMEAEDAATYYCHQYHHSPYIYTFGGGTKLEIK
B15: KB001 mouse Fab VH S30E (Fab, V domains shown)
VH: EVQLKQSGPGLVAPSQSLSITCTVSGFSLEIYSVHWVRQPPGKGLEWLGMIWGGGSSDYNSALKSRLSISKDNSKSQVFLKMNSLQTDDTAMYYCARNGNFYAMDYWGQGTSVTVSS
VL: QIVLTQSPAIMSASLGERVTMTCTASSSVSSSFLHWYQQKPGSSPQLWIYSTSNLASGVPARFSGSGSGTSYSLTISSMEAEDAATYYCHQYHHSPYIYTFGGGTKLEIK
B16: KB001 mouse Fab VH S30N (Fab, V domains shown)
VH: EVQLKQSGPGLVAPSQSLSITCTVSGFSLNIYSVHWVRQPPGKGLEWLGMIWGGGSSDYNSALKSRLSISKDNSKSQVFLKMNSLQTDDTAMYYCARNGNFYAMDYWGQGTSVTVSS
VL: QIVLTQSPAIMSASLGERVTMTCTASSSVSSSFLHWYQQKPGSSPQLWIYSTSNLASGVPARFSGSGSGTSYSLTISSMEAEDAATYYCHQYHHSPYIYTFGGGTKLEIK
B17: KB001 mouse Fab VH S61Q (Fab, V domains shown)
VH: EVQLKQSGPGLVAPSQSLSITCTVSGFSLSIYSVHWVRQPPGKGLEWLGMIWGGGSSDYNQALKSRLSISKDNSKSQVFLKMNSLQTDDTAMYYCARNGNFYAMDYWGQGTSVTVSS
VL: QIVLTQSPAIMSASLGERVTMTCTASSSVSSSFLHWYQQKPGSSPQLWIYSTSNLASGVPARFSGSGSGTSYSLTISSMEAEDAATYYCHQYHHSPYIYTFGGGTKLEIK
B18: KB001 mouse Fab VH S61D (Fab, V domains shown)
VH: EVQLKQSGPGLVAPSQSLSITCTVSGFSLSIYSVHWVRQPPGKGLEWLGMIWGGGSSDYNDALKSRLSISKDNSKSQVFLKMNSLQTDDTAMYYCARNGNFYAMDYWGQGTSVTVSS
VL: QIVLTQSPAIMSASLGERVTMTCTASSSVSSSFLHWYQQKPGSSPQLWIYSTSNLASGVPARFSGSGSGTSYSLTISSMEAEDAATYYCHQYHHSPYIYTFGGGTKLEIK
B19: KB001 mouse Fab VH S28P (Fab, V domains shown)
VH: EVQLKQSGPGLVAPSQSLSITCTVSGFPLSIYSVHWVRQPPGKGLEWLGMIWGGGSSDYNSALKSRLSISKDNSKSQVFLKMNSLQTDDTAMYYCARNGNFYAMDYWGQGTSVTVSS
VL: QIVLTQSPAIMSASLGERVTMTCTASSSVSSSFLHWYQQKPGSSPQLWIYSTSNLASGVPARFSGSGSGTSYSLTISSMEAEDAATYYCHQYHHSPYIYTFGGGTKLEIK
B20: KB001 mouse Fab VH S28E (Fab, V domains shown)
VH: EVQLKQSGPGLVAPSQSLSITCTVSGFELSIYSVHWVRQPPGKGLEWLGMIWGGGSSDYNSALKSRLSISKDNSKSQVFLKMNSLQTDDTAMYYCARNGNFYAMDYWGQGTSVTVSS
VL: QIVLTQSPAIMSASLGERVTMTCTASSSVSSSFLHWYQQKPGSSPQLWIYSTSNLASGVPARFSGSGSGTSYSLTISSMEAEDAATYYCHQYHHSPYIYTFGGGTKLEIK
B21: KB001 mouse Fab VH S30G (Fab, V domains shown)
VH: EVQLKQSGPGLVAPSQSLSITCTVSGFSLGIYSVHWVRQPPGKGLEWLGMIWGGGSSDYNSALKSRLSISKDNSKSQVFLKMNSLQTDDTAMYYCARNGNFYAMDYWGQGTSVTVSS
VL: QIVLTQSPAIMSASLGERVTMTCTASSSVSSSFLHWYQQKPGSSPQLWIYSTSNLASGVPARFSGSGSGTSYSLTISSMEAEDAATYYCHQYHHSPYIYTFGGGTKLEIK

Molecular target: HRgpA-6H (Porphyromonas gingivalis) (UniProt P28784)
Experiment: ELISA, coated HRgpA-6H

Chain of UniProt P28784 (P28784 228-860 limits assumed): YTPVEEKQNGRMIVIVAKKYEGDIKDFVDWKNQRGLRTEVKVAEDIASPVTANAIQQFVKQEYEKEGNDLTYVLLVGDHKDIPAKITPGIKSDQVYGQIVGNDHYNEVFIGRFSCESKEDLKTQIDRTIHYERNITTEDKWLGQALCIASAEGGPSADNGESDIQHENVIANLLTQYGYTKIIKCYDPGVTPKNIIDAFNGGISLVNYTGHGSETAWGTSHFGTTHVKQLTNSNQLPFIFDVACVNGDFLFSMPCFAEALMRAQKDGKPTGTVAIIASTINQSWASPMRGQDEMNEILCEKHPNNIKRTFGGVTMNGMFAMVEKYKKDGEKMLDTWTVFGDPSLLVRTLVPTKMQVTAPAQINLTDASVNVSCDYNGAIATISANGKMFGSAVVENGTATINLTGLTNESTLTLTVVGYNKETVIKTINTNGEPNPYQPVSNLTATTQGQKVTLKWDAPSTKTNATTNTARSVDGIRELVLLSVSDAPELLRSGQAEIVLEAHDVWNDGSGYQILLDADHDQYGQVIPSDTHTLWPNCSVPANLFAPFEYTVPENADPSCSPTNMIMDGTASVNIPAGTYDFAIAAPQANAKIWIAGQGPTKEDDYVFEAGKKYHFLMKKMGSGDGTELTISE

Binder	OD450 nm	Ratio OD(Variant)/OD(WT)
B1	0.755 and 0.772 and 0.754	0.964 and 0.985 and 0.962
B2	0.727	0.928
B3	0.646	0.825
B4	0.744 and 0.74	0.95 and 0.944
B5	0.725	0.925
B6	0.765	0.976
B7	0.774	0.988
B8	0.776	0.99
B9	0.711 and 0.692 and 0.684	0.907 and 0.883 and 0.873
B10	0.672	0.858
B11	0.727	0.928
B12	0.695 and 0.731	0.887 and 0.933
B13	0.769	0.981
B14	0.706	0.901
B15	0.567	1.12
B16	0.565 and 0.56	1.12 and 1.11
B17	0.634	1.28
B18		1.14 and 1.11 (2×) and 0.956
B19	0.545 and 0.452 and 0.514	1.01 and 0.837 and 0.952
B20	0.561 and 0.551 and 0.494	1.04 and 1.02 and 0.915
B21	0.533 and 0.515	1.06 and 1.02
